The target in the assay is T1, […]n, n = 5 (100-mer), non-glycosylated (human).
T1 construct: non-glycosylated MUC1 peptide with five tandem repeats in series
The assay can be described thus: peptide ELISA, OD 492 nm; limit of the class, member by Table 2; reference: 20-mer. A general note: ELISA stands for enzyme-linked immunosorbent assay.

B1: HMFG-1 (antibody, V domains shown)
VH: QVQLVQSGAEVKKPGASVKVSCKASGYTFSAYWIEWVRQAPGKGLEWVGEILPGSNNSRYNEKFKGRVTVTRDTSTNTAYMELSSLRSEDTAVYYCARSYDFAWFAYWGQGTLVTVSS
VL: DIQMTQSPSSLSASVGDRVTITCKSSQSLLYSSNQKIYLAWYQQKPGKAPKLLIYWASTRESGVPSRFSGSGSGTDFTFTISSLQPEDIATYYCQQYYRYPRTFGQGTKVEIKR
On to B1, for which the “ratio of the optical density 100-mer/20-mer” value was above 3.

Values taken from patent US20150010495A1 (GLYCOTOPE, published 2015).
